According to PMC6713497:

Experiments:
[1] = biological target: AxqNOR Val495Ala-BRIL (Alcaligenes xylosoxidans); test: cryo-EM structure; single-particle cryo-EM of detergent-solubilised qNOR-BRIL (50 mM tris, 150 mM NaCl, 0.05% DTM; wild type pH 7.0 at 3 mg/ml, Val495Ala pH 7.5 at 5 mg/ml), C2 symmetry imposed
[2] = biological target: qNOR from Neisseria meningitidis (NmqNOR), wild type (Neisseria meningitidis); test: cryo-EM structure; cryo-EM dataset of wild-type NmqNOR, 9 Å reconstruction (fig. S1); conditions not given

Row | Substance | stoichiometry N [1] | stoichiometry N [2]
1 | AxqNOR Val495Ala-BRIL (enzyme) | 2 | –
2 | qNOR from Neisseria meningitidis (NmqNOR), wild type (enzyme) | – | 2
